Measured values reported in patent JP2012055312A.

Biological target: ビオチン−IL−6 (UniProt P05231)
Experiment: Luminex-based assay of IL-6 binding to IL-6 receptor (solid-phase sIL-6R/gp80)

Sequence of UniProt P05231 (P05231 30-212 limits assumed): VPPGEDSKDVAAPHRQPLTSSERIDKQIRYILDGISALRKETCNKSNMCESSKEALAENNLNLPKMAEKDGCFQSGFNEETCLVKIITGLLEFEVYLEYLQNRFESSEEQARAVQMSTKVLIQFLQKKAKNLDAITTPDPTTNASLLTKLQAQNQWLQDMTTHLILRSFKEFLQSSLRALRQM

percent inhibition of IL-6 binding to IL-6 receptor: 100%
B1: キメラCLB8 (antibody, V domains shown)
VH: EVQLVESGGKLLKPGGSLKLSCAASGFTFSSFAMSWFRQSPEKRLEWVAEISSGGSYTYYPDTVTGRFTISRDNAKNTLYLEMSSLRSEDTAMYYCARGLWGYYALDYWGQGTSVTVSS
VL: QIVLIQSPAIMSASPGEKVTMTCSASSSVSYMYWYQQKPGSSPRLLIYDTSNLASGVPVRFSGSGSGTSYSLTISRMEAEDAATYYCQQWSGYPYTFGGGTKLEIK
